Data published in article doi:10.1101/2023.03.15.532784.

Target: Homo sapiens full-length TRPV4 (hTRPV4) with C-terminal FLAG-tag and 10xHis-tag (human) (UniProt Q9HBA0)
Assay: cryo-EM structure

Chain of UniProt Q9HBA0 (Q9HBA0 whole entry): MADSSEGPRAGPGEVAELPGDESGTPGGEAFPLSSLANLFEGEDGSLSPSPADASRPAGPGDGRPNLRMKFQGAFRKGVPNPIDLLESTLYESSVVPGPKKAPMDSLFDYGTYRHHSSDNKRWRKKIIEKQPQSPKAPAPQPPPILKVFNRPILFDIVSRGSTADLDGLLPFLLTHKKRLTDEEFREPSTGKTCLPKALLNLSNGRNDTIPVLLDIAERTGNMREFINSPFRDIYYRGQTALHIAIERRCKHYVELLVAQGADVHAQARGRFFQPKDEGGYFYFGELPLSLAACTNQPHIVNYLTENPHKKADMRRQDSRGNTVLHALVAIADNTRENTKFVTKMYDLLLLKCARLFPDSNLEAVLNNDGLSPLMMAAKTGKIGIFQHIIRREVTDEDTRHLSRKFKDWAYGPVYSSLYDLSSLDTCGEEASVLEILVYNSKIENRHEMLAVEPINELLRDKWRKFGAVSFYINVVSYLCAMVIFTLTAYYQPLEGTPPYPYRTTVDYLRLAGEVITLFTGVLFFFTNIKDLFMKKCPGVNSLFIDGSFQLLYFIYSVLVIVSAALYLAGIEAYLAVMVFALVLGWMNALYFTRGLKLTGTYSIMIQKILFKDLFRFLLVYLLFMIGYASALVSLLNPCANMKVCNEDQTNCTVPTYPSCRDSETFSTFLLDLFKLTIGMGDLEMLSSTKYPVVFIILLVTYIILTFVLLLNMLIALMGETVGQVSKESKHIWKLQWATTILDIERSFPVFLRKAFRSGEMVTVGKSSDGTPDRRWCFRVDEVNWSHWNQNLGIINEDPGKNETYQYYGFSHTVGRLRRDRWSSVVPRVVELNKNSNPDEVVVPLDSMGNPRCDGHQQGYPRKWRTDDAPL

For “endogenous RhoA copurified with overexpressed TRPV4 (from UniProt P61586 1-193) (natural protein)”, the stoichiometry N (RhoA per TRPV4 subunit) was 1.
